Drawing on paper PMC7453904, “Intrahepatic heteropolymerization of M and Z alpha-1-antitrypsin” (JCI Insight, 2020), this text covers mean length in subunits of circular polymers without a detectable M component, mean length in subunits of linear polymers without a detectable M component and Kd for two molecules.

For experiment [1], the target named is Z A1AT subunit of MZ heterozygote liver polymers (human (endogenous in liver tissue)). Put plainly: negative-stain electron microscopy of liver polymers; polymers formed in vivo, extracted from inclusion bodies of explant liver and purified; imaged with and without Fab2H2, which marks M subunits; subunits counted.
For experiment [2], the target named is T1, plasma-purified monomeric native M alpha-1-antitrypsin (Homo sapiens (Human)., UniProt P01009).
T1 construct: Plasma glycoprotein; also called M A1AT; native M A1AT
T1 sequence (P01009 25-418): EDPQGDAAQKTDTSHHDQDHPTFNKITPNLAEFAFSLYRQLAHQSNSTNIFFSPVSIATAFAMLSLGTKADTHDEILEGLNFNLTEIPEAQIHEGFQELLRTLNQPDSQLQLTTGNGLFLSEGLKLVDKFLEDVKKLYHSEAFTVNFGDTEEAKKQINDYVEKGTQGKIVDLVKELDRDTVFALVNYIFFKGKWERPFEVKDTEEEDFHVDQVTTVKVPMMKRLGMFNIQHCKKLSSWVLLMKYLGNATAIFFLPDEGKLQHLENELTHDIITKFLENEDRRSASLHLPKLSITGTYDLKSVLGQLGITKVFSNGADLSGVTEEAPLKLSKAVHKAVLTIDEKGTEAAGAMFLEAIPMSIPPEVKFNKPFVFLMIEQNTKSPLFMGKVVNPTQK
Briefly: SPR; Biacore T100; mAb2H2 amine-coupled to a CM5 chip; A1AT analytes 0–2 μM in PBS with 0.05% v/v Tween-20 at 30 μL/min; maximal responses fit by a hyperbolic function. To be noted: both partners purified. On the technique in general: Surface plasmon resonance follows binding to a sensor surface in real time, without labels.

Regarding “Z A1AT subunit of MZ heterozygote liver polymers (natural protein)”, in experiment [1], the mean length in subunits of circular polymers without a detectable M component came out at 6.6 subunits and the mean length in subunits of linear polymers without a detectable M component stood at 6.5 subunits.

B1: monoclonal antibody mAb2H2 (antibody, V domains shown)
VH: EVQLEESGGGLVKPGGSLKLSCAASGFAFSIYDMSWVRQTPEKRLEWVAYISSGGGTTYYPDTVKGRFTISRDNAKNTLYLQMSSLKSEDTAIYYCARHAGVHYWGQGTTLTVSS
VL: DIVMTQSPSSMYASLGERVTITCKASQDINSYLSWFQQKPGKSPKNLIYRANRLVDGVPSRFSGSGSGQDYSLTISSLEYEDMGIYYCLQYDEFPWTFGGGTKLESK
notes: Whole mouse monoclonal antibody; Raised against heat-induced and denaturant-induced polymers of plasma A1AT; also called clone 2H2; source: hybridoma from splenocytes of immunized BALB/c mice; in culture medium (screen) and purified (HiTrap Protein G)
For orientation: Kd means the concentration at which binding is half-saturated. High values mean weaker binding, low ones tighter binding. B1 displayed a Kd in experiment [2] of 447 nM.
